{
  "source": "paper doi:10.1101/2022.10.17.512631",
  "about": "(bioRxiv, 2022)",
  "binders": {"B1": {"name": "HEXIM1 (natural protein)", "chain": "MAEPFLSEYQHQPQTSNCTGAAAVQEELNPERPPGAEERVPEEDSRWQSRAFPQLGGRPGPEGEGSLESQPPPLQTQACPESSCLREGEKGQNGDDSSAGGDFPPPAEVEPTPEAELLAQPCHDSEASKLGAPAAGGEEEWGQQQRQLGKKKHRRRPSKKKRHWKPYYKLTWEEKKKFDEKQSLRASRIRAEMFAKGQPVAPYNTTQFLMDDHDQEEPDLKTGLYSKRAAAKSDDTSDDDFMEEGGEEDGGSDGMGGDGSEFLQRDFSETYERYHTESLQNMSKQELIKEYLELEKCLSRMEDENNRLRLESKRLGGDDARVRELELELDRLRAENLQLLTENELHRQQERAPLSKFGD"}},
  "target": "METTL3 (human, UniProt Q86U44 1-580)",
  "sequence (Q86U44 whole entry)": "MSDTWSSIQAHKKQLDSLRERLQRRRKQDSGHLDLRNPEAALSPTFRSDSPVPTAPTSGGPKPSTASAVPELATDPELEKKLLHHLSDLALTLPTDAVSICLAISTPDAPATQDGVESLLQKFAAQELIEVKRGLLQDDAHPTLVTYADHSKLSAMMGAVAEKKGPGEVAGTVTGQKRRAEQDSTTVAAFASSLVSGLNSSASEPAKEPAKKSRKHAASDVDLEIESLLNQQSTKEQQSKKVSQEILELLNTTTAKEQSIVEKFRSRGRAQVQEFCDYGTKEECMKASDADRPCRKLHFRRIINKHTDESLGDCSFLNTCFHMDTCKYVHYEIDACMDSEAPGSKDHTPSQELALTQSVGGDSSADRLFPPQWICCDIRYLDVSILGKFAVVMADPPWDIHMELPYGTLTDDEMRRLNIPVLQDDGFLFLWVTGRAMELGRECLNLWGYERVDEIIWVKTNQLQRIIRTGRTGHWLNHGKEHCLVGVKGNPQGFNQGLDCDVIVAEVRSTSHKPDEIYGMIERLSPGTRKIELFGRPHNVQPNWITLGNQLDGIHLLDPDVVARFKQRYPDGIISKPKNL",
  "experiment": "SPR",
  "data": [
    {"binder": "B1", "values": [
      {"measurement": "Kd", "value": "~270", "unit": "nM"}
    ]}
  ]
}
